T1: recombinant human PLGF (human, UniProt P49763-2 19-149, limits assumed)
T1 construct: Negative control; also called PIGF
T1 sequence (looked up): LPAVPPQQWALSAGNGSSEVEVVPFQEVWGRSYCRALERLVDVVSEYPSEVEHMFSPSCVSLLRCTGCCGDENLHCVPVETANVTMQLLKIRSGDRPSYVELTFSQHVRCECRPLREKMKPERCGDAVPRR

T2: recombinant human VEGF121 (human, UniProt P15692 27-147)
T2 construct: mature; Isoform VEGF121 of the entry; also called hVEGF121
T2 sequence (looked up): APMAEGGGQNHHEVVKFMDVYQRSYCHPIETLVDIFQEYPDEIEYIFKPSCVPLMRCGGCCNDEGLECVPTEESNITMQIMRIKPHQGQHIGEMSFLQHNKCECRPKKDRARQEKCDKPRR

T3: recombinant human VEGF110 (human, UniProt P15692-4 27-136, limits assumed)
T3 construct: Made in house; also called hVEGF110
T3 sequence (looked up): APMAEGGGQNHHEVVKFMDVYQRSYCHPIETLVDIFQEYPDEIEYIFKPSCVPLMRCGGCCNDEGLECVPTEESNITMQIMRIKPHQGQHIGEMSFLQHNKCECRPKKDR

B1: 578min_max T84N_V89L (scFv)
scFv: EIVMTQSPSTLSASVGDRVIITCQASEIIHSWLAWYQQKPGKAPKLLIYLASTLASGVPSRFSGSGSGAEFTLTISSLQPDDFATYYCQNVYLASTNGANFGQGTKLTVLGGGGGSGGGGSGGGGSGGGGSEVQLVESGGGLVQPGGSLRLSCTASGFSLTDYYYMTWVRQAPGKGLEWVGFIDPDDDPYYATWAKGRFTISRDNSKNTLYLQMNSLRAEDTAVYYCAGGDHNSGWGLDIWGQGTLVTVSS
notes: the VH entry already carries T84N and V89L; tied by name; also called Protein No. 1008
B2: 578min_max T84N_V89L_DHP (scFv)
scFv: EIVMTQSPSTLSASVGDRVIITCQASEIIHSWLAWYQQKPGKAPKLLIYLASTLASGVPSRFSGSGSGAEFTLTISSLQPDDFATYYCQNVYLASTNGANFGQGTKLTVLGGGGGSGGGGSGGGGSGGGGSEVQLVESGGGSVQPGGSLRLSCTASGFSLTDYYYMTWVRQAPGKGLEWVGFIDPDDDPYYATWAKGRFTISRDNSKNTLYLQMNSLRAEDTATYYCAGGDHNSGWGLDIWGQGTTVTVSS
B3: 578minmax FW1.4_DHP (scFv)
scFv: EIVMTQSPSTLSASVGDRVIITCQASEIIHSWLAWYQQKPGKAPKLLIYLASTLASGVPSRFSGSGSGAEFTLTISSLQPDDFATYYCQNVYLASTNGANFGQGTKLTVLGGGGGSGGGGSGGGGSGGGGSEVQLVESGGGSVQPGGSLRLSCTASGFSLTDYYYMTWVRQAPGKGLEWVGFIDPDDDPYYATWAKGRFTISRDTSKNTVYLQMNSLRAEDTATYYCAGGDHNSGWGLDIWGQGTTVTVSS
notes: tied by name only
B4: 567-max (scFv)
scFv: EIVMTQSPSTLSASVGDRVIITCQADQSIYIWLSWYQQKPGKAPKLLIYKASTLESGVPSRFSGSGSGTQFTLTISSLQPDDFATYYCQNNAHYSTNGGTFGQGTKLTVLGGGGGSGGGGSGGGGSGGGGSEVQLVESGGGLVQPGGSLRLSCSVSGFSLSDYYMCWVRQAPGKGLEWVGCLDYFGSTDDASWAKGRFTISKDTSKNTVYLQMNSLRAEDTAVYYCARTDDSRGWGLNIWGQGTLVTVSS
notes: VL and VH tied by name; also called Protein Nr; 874
B5: 567-min (scFv)
scFv: EIVMTQSPSTLSASVGDRVIITCQADQSIYIWLSWYQQKPGKAPKLLIYKASTLESGVPSRFSGSGSGAEFTLTISSLQPDDFATYYCQNNAHYSTNGGTFGQGTKLTVLGGGGGSGGGGSGGGGSGGGGSEVQLVESGGGLVQPGGSLRLSCAASGFSLSDYYMCWVRQAPGKGLEWVSCLDYFGSTDDASWAKGRFTISRDNSKNTLYLQMNSLRAEDTAVYYCAKTDDSRGWGLNIWGQGTLVTVSS
notes: also called Protein Nr; 884
B6: 435-max (scFv)
scFv: EIVMTQSPSTLSASVGDRVIITCQASQSIGSSLAWYQQKPGKAPKLLIYTAANLASGVPSRFSGSRSGAEFTLTISSLQPDDFATYYCQNFATSDTVTFGQGTKLTVLGGGGGSGGGGSGGGGSGGGGSEVQLVESGGGLVQPGGSLRLSCKASGFSLNTNYWMCWVRQAPGKGLEWVGCMYTGSYNRAYYASWAKGRFTSSKDTSKNTVYLQMNSLRAEDTAVYYCAKGSNWYSDLWGQGTLVTVSS
notes: the scFv entry is used; also called Protein Nr; 945

Key:
[1] = target: recombinant murine VEGF164 (mouse) (UniProt Q00731); test: Biacore SPR, VEGF immobilized, pH 5
[2] = target: recombinant rat VEGF164 (rat) (UniProt P16612); test: Biacore SPR, VEGF immobilized, pH 5
[3] = target: recombinant murine VEGF164 (mouse) (UniProt Q00731); test: Biacore SPR; ratio to hVEGF165
[4] = target: recombinant rat VEGF164 (rat) (UniProt P16612); test: Biacore SPR; ratio to hVEGF165
[5] = target: T4, recombinant human VEGF165 (human, UniProt P15692 27-191); test: Biacore SPR, VEGF immobilized, pH 5
T4 construct: mature; Isoform VEGF165 of the entry; also called hVEGF165; hVEGF
T4 sequence (P15692 other isoform, or with tags, fused parts or gaps): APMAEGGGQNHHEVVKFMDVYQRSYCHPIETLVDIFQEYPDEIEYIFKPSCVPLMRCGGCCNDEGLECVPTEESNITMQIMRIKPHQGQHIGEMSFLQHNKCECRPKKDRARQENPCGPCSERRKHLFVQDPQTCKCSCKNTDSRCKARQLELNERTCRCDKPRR
Procedure: In this example, the Biacore-binding ability of scFvs was tested and the binding affinity was measured using the exemplary surface plasmon resonance method with BIAcore™-T100. The VEGF proteins, tested for binding by these scFv candidates, in this example and later examples include purified Escherichia coli-expressed recombinant human VEGF₁₆₅ (PeproTech EC Ltd.), recombinant human VEGF₁₂₁ (PeproTech EC Ltd.), recombinant human VEGF₁₁₀ (ESBATech AG), recombinant murine VEGF₁₆₄ (PeproTech EC Ltd.), recombinant rat VEGF₁₆₄ (Biovision), recombinant rabbit VEGF₁₁₀ (ESBATech AG), and recombinant human PLGF (PeproTech EC Ltd.). For the surface plasmon resonance experiment, carboxymethylated dextran biosensor chips (CM4, GE Healthcare) were activated with N-ethyl-N′-(3-dimethylaminopropyl) carbodiimide hydrochloride and N-hydroxysuccinimide according to the supplier's instructions. Each of the 6 different VEGF forms, as exemplified above, was coupled to 1 of the 4 different flow cells on a CM4 sensor chip using a standard amine-coupling procedure. […] The 4th flow cell of each chip was treated similarly except no proteins were immobilized prior to blocking, and the flow cell was used as in-line reference. […] Dissociation of the anti-VEGF scFv from the VEGF on the CM4 chip was allowed to proceed for 10 min at 25° C. Sensorgrams were generated for each anti-VEGF scFv sample after in-line reference cell correction followed by buffer sample subtraction. The apparent dissociation rate constant (kd), the apparent association rate constant (kₐ) and the apparent dissociation equilibrium constant (KD) were calculated using one-to-one Langmuir binding model with BIAcore T100 evaluation Software version 1.1. […]

recombinant human PLGF = target: T1, recombinant human PLGF; test: Biacore SPR, PlGF immobilized, pH 5
Procedure: (§1) In this example, the Biacore-binding ability of scFvs was tested and the binding affinity was measured using the exemplary surface plasmon resonance method with BIAcore™-T100. The VEGF proteins, tested for binding by these scFv candidates, in this example and later examples include purified Escherichia coli-expressed recombinant human VEGF₁₆₅ (PeproTech EC Ltd.), recombinant human VEGF₁₂₁ (PeproTech EC Ltd.), recombinant human VEGF₁₁₀ (ESBATech AG), recombinant murine VEGF₁₆₄ (PeproTech EC Ltd.), recombinant rat VEGF₁₆₄ (Biovision), recombinant rabbit VEGF₁₁₀ (ESBATech AG), and recombinant human PLGF (PeproTech EC Ltd.). For the surface plasmon resonance experiment, carboxymethylated dextran biosensor chips (CM4, GE Healthcare) were activated with N-ethyl-N′-(3-dimethylaminopropyl) carbodiimide hydrochloride and N-hydroxysuccinimide according to the supplier's instructions. Each of the 6 different VEGF forms, as exemplified above, was coupled to 1 of the 4 different flow cells on a CM4 sensor chip using a standard amine-coupling procedure. […] The 4th flow cell of each chip was treated similarly except no proteins were immobilized prior to blocking, and the flow cell was used as in-line reference. […] Dissociation of the anti-VEGF scFv from the VEGF on the CM4 chip was allowed to proceed for 10 min at 25° C. Sensorgrams were generated for each anti-VEGF scFv sample after in-line reference cell correction followed by buffer sample subtraction. The apparent dissociation rate constant (kd), the apparent association rate constant (kₐ) and the apparent dissociation equilibrium constant (KD) were calculated using one-to-one Langmuir binding model with BIAcore T100 evaluation Software version 1.1.

[6] = target: T4, recombinant human VEGF165; test: cell-based or functional assay
[7] = target: T4, recombinant human VEGF165; test: Biacore SPR, VEGF immobilized, pH 5; remark: listed apart in the source
Procedure: as §1

[8] = target: T4, recombinant human VEGF165; test: Biacore SPR, VEGF immobilized, pH 7.4
Procedure: as §1

[9] = target: T4, recombinant human VEGF165; test: Biacore SPR, VEGF immobilized, pH 5; remark: listed apart in the source
Procedure: as §1

[10] = target: T2, recombinant human VEGF121; test: Biacore SPR, VEGF immobilized, pH 5
Procedure: as §1

[11] = target: T3, recombinant human VEGF110; test: Biacore SPR, VEGF immobilized, pH 5
Procedure: as §1

[12] = target: T4, recombinant human VEGF165; test: VEGFR1/Fc competition ELISA on coated hVEGF165; ratio to Lucentis
Procedure: After 30-60 min of incubation at room temperature, the mixtures were transferred to the human VEGF₁₆₅ immobilized plate and incubated for 90 min. […] Optical density at 450 nm (OD 450 nm) was measured using a Sunrise microplate reader (Tecan). Data were analyzed as above, and EC₅₀ values were calculated from the dose-response curves of the scFvs.

Binder | Kd [1] | koff [1] | kon [1] | Kd [2] | koff [2] | kon [2] | relative value KdhVEGF165/KdmVEGF164 [3] | relative value kdhVEGF165/kdmVEGF164 [3] | relative value KdhVEGF165/KdmVEGF164 (rat block) [4] | relative value kdhVEGF165/kdmVEGF164 (rat block) [4] | Kd [5] | koff [5] | kon [5] | binding result (recombinant human PLGF) | koff [7] | kon [7] | koff [8] | kon [8] | koff [9] | kon [9] | also measured
B1 | 1.53 nM | 0.00188 s⁻¹ | 1.23e+06 M⁻¹ s⁻¹ | 1.89 nM | 0.00152 s⁻¹ | 802000 M⁻¹ s⁻¹ | 1 | 1 | 0.8 | 1.2 | 1.59 nM | 0.0018 s⁻¹ | 1.13e+06 M⁻¹ s⁻¹ |  |  |  |  |  |  |  | 
B2 | 1.46 nM | 0.00216 s⁻¹ | 1.47e+06 M⁻¹ s⁻¹ | 1.82 nM | 0.0019 s⁻¹ | 1.04e+06 M⁻¹ s⁻¹ | 1.8 | 1.4 | 1.5 | 1.6 |  |  |  |  |  |  |  |  |  |  | 
B3 | 0.608 nM | 0.000669 s⁻¹ | 1.1e+06 M⁻¹ s⁻¹ | 0.845 nM | 0.000676 s⁻¹ | 800000 M⁻¹ s⁻¹ | 0.9 | 0.6 | 0.7 | 0.6 | 0.576 nM | 0.000409 s⁻¹ | 711000 M⁻¹ s⁻¹ |  |  |  |  |  |  |  | 
B4 |  | 0.000152 s⁻¹ | 1.64e+06 M⁻¹ s⁻¹ |  | 0.000203 s⁻¹ | 1.36e+06 M⁻¹ s⁻¹ |  |  |  |  |  |  |  | no binding | 0.000226 s⁻¹ | 1.2e+06 M⁻¹ s⁻¹ | 0.000167 s⁻¹ | 1.17e+06 M⁻¹ s⁻¹ | 0.000226 s⁻¹ | 1.2e+06 M⁻¹ s⁻¹ | Rel. activity in HUVEC assay (EC50Luc[nM]/EC50test[nM]) [6]: 0.0086; koff [10]: 5.76e-05 s⁻¹; kon [10]: 1.13e+06 M⁻¹ s⁻¹; koff [11]: 3.27e-05 s⁻¹; kon [11]: 1e+06 M⁻¹ s⁻¹
B5 |  | 0.00035 s⁻¹ | 2.06e+06 M⁻¹ s⁻¹ |  | 0.00048 s⁻¹ | 1.72e+06 M⁻¹ s⁻¹ |  |  |  |  |  |  |  | no binding | 0.000461 s⁻¹ | 2.01e+06 M⁻¹ s⁻¹ | 0.0007 s⁻¹ | 1.11e+06 M⁻¹ s⁻¹ | 0.000461 s⁻¹ | 2.01e+06 M⁻¹ s⁻¹ | koff [10]: 4.54e-05 s⁻¹; kon [10]: 1.89e+06 M⁻¹ s⁻¹; koff [11]: 3.82e-05 s⁻¹; kon [11]: 1.52e+06 M⁻¹ s⁻¹
B6 |  |  |  |  |  |  |  |  |  |  |  |  |  |  | 0.000755 s⁻¹ | 167000 M⁻¹ s⁻¹ | 0.000104 s⁻¹ | 1.13e+06 M⁻¹ s⁻¹ |  |  | Rel. activity hVEGR1 comp. ELISA (EC50Luc[nM]/EC50test[nM]) [12]: 0.00039

Source: US20150274820A1 (ESBATECH AN ALCON BIOMEDICAL RESEARCH UNIT, published 2015)
